In publication PMC5159831:

Legend:
[1] = biological target: recombinant TACE catalytic domain
MMP7 catalytic domain = biological target: T1, MMP7 catalytic domain
T1 sequence (P09237 whole entry, species assumed, looked up): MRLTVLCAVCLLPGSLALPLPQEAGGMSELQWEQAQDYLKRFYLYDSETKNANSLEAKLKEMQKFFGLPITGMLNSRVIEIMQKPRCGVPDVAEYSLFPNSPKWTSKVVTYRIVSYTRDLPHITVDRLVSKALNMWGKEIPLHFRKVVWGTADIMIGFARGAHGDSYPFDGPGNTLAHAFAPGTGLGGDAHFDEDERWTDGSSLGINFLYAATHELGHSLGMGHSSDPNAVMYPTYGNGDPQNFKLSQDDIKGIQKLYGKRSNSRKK

Chain of recombinant TACE catalytic domain (P78536 215-671): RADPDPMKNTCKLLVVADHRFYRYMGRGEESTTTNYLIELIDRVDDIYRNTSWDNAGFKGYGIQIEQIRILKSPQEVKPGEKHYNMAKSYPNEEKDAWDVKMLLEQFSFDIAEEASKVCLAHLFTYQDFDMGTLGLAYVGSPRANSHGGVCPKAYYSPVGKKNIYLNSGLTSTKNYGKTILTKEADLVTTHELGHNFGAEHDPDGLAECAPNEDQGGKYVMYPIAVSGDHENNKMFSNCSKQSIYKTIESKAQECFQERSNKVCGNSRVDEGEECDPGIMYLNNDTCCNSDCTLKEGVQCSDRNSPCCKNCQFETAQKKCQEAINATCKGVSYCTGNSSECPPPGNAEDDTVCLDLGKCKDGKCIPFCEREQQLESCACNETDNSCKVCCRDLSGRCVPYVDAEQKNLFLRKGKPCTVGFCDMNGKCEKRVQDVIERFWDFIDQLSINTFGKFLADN
Chain of MMP9 catalytic domain (P14780 20-707): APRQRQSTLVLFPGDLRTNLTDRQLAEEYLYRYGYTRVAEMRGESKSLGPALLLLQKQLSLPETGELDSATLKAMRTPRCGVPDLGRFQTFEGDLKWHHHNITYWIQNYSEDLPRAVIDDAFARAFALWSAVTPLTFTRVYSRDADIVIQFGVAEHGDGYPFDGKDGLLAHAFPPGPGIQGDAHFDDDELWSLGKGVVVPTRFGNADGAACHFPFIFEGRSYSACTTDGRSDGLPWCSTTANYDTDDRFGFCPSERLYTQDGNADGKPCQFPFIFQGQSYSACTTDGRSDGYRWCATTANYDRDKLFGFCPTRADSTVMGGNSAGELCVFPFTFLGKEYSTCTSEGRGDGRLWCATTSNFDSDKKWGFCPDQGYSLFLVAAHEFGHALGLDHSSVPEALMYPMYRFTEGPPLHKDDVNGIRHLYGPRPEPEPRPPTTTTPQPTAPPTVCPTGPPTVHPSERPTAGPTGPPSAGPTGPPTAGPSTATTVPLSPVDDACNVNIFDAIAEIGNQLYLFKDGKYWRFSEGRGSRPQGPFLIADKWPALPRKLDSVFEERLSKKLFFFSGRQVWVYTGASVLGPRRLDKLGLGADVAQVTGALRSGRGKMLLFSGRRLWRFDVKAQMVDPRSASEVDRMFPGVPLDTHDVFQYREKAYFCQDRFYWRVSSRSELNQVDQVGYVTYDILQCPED

IC50 of inhibition of the enzyme's hydrolysis of a fluorogenic peptide (10 nM MT1-MMP, Mca-PLGL-Dpa-AR 10 μM, 37 °C) (MT1-MMP catalytic domain) [µM] | IC50 of inhibition of the enzyme's hydrolysis of a fluorogenic peptide (10 nM TACE, 37 °C) [1] [µM] | IC50 of inhibition of the enzyme's hydrolysis of a fluorogenic peptide (10 nM MMP9, Mca-PLGL-Dpa-AR 10 μM, 37 °C) (MMP9 catalytic domain) [µM] | IC50 of inhibition of the enzyme's hydrolysis of a fluorogenic peptide (10 nM MMP7, Mca-PLGL-Dpa-AR 10 μM, 37 °C) (MMP7 catalytic domain) [µM] | Substance
4.65 | 0.307 | 4.34 | – | TACE prodomain (TPD) R58A (from UniProt P78536 23-214) (domain or fragment)
– | 0.018 | – | 5.44 | TACE prodomain double mutant R58A/C184A (TPD-DM) (from UniProt P78536 23-214) (domain or fragment)
